Laboratory results taken from US20100215619A1.
Blank lines part the entries; values can stand above or below the binder they belong to.

Key:
HLA-DRB1*0101 (human) = test: competition binding; conditions: modification not given
HLA-DRB4*0101 (human) = test: competition binding; conditions: modification not given

- IC50 (HLA-DRB1*0101 (human)): 0.456 µM
B1: p15 (peptide)
chain: GTLRGYYNQSEAGSH

- IC50 (HLA-DRB4*0101 (human)): 90 µM
B2: p6 (peptide)
chain: VGYVDDTQFVRFDSD
